Target: T1, mouse ADAMTS7 (Mus musculus, UniProt Q68SA9, E373Q)
T1 construct: Full-length mouse Adamts7 1-1857 (Uniprot Q68SA9, WT or E373Q catalytic mutant); expressed in transfected cells; host or cells: Human Coronary Artery Smooth Muscle Cells (HCA-SMC, Lonza), adenovirus 50 MOI
T1 sequence (Q68SA9 221-1657 E373Q): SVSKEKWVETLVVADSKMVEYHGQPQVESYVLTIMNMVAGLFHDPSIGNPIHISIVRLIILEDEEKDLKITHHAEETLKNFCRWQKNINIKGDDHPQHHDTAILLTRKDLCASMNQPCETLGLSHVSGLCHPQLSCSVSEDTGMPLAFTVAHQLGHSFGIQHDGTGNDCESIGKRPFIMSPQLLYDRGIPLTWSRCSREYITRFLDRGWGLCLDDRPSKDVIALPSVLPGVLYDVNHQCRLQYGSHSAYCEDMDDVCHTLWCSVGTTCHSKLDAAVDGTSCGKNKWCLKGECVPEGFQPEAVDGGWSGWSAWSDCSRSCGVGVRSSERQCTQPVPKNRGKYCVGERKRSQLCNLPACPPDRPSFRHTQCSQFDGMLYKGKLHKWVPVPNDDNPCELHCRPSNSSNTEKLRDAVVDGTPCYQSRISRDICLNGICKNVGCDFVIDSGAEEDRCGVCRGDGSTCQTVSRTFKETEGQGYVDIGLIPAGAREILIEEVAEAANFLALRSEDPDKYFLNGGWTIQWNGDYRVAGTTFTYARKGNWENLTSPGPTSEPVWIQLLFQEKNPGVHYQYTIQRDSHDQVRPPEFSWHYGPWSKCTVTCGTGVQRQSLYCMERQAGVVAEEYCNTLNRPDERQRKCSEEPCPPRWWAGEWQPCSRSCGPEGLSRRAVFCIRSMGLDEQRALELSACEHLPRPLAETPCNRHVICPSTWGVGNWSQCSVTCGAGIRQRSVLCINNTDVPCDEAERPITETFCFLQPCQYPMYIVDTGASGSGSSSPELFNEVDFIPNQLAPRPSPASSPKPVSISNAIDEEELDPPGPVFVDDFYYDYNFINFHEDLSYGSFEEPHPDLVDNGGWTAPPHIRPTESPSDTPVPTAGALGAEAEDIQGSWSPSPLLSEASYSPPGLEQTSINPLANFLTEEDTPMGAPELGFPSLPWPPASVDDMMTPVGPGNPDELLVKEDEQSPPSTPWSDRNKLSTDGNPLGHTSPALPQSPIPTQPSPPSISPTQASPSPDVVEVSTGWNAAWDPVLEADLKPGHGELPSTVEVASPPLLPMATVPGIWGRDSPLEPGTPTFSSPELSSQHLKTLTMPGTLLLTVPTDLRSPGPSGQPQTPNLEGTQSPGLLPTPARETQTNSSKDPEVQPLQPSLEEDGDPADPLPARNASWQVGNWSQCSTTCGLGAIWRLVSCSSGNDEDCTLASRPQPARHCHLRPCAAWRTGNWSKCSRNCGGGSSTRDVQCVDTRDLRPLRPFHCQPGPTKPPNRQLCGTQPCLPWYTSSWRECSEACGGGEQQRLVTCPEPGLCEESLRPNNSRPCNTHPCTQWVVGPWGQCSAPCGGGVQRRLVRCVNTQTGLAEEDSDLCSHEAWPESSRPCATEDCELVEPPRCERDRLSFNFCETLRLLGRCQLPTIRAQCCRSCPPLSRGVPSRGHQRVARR
Experiment: TMT10 TAILS N-terminomics, HUVEC experiment (process replicates, trypsin/AspN digest)
Type: cell-based, human
Conditions: HUVEC TAILS HC; log fold change of N-terminal peptide, Ad-mADAMTS7 EQ over Luc
Source text: ADAMTS7 Expression, Cell Culture and Preparation of the Secreted Proteins—Full-length mouse Adamts7 1-1857 (Uniprot Q68SA9, WT or E373Q catalytic mutant) with a carboxyl terminal 3xFLAG tag was used to generate custom adenoviruses as previously described. Adeno-CMV-Luciferase (Ad-Luc) from Vector Biolabs was used as a negative control. Human Coronary Artery Smooth Muscle Cells (HCA-SMC) were obtained from Lonza and expanded in Lonza SmGM-2 media in 15 cm tissue culture plates. Twenty-four hours before media collection, near confluent plates were transduced with 50 MOI adenovirus and switched to Lonza Basal SM media with volumes of 20 ml per 15 cm plate. Expression of the Flag tagged ADAMTS7 was confirmed from the media using western blot and detected using the anti-Flag M2-HRP antibody (Sigma, A8592). Collected media was processed by adding protease inhibitors (1 mM EDTA and 1 mM PMSF) and clarified by 500 g×5 min spin at 4 C to pellet cell debris. Cell media supernatants were then passed through a 0.22 um filter and kept chilled. Processed media was then concentrated 50-100× using 3 kDa Centricon Plus-70 filter unit, spun at 3,500 g×60 min at 4 C. Approximately 10% of the processed, concentrated media was set aside for total secretome proteolytic analysis. The remaining 90% of the processed, concentrated media was buffer exchanged into 50 mM HEPES pH 8.0, 150 mM NaCl (2×50 ml) using the 3 kDa Centricon Plus-70 filter unit and concentrated to >2 mg/ml to serve as input for the TAILS experiment. Secretome and TAILS input samples were stored at −80° C.
For the first experiment, referred to as SMC1, 120 ml of media from 6×15 cm dishes was pooled from each condition (Luc, WT, EQ) and processed to produce three separate inputs for the TAILS experiment. Luc, WT and EQ inputs from the SMC1 experiment were each divided into triplicate 400 ug samples to generate technical replicate TAILS data. For the second experiment, referred to as SMC2, media was processed separately in triplicate for each condition (Luc1, Luc2, Luc3, WT1, WT2, WT3, EQ1, EQ2, EQ3) using 60 ml of media from 3×15 cm dishes for each process replicate. Inputs from the SMC2 experiment used process replicates of 300 ug each to generate TAILS data. The third experiment used input from cultured Human umbilical vein endothelial cells (HUVEC) from Lifeline Cell Technology grown in VascuLife Media and transduced in Lifeline Basal EC (+bFGF2 10 ng/ml). The HUVEC experiment used the same strategy as the SMC2 experiment, with 40 ml of media from 2×15 cm dishes for each process replicate and used 200 ug each to generate TAILS data. Inputs for process replicate experiments were restricted to the lowest concentration from the 9 parallel samples for SMC2 or HUVEC.
TMT10 isotopic labeling and negative selection of non-labeled peptides-Sample preparation was performed based on the TAILS protocol from the Overall lab with some modifications. From a single experiment, nine parallel protein samples in 50 mM HEPES pH 8.0, 150 mM NaCl were separately denatured with guanidinium chloride (Sigma, G4505) to reach a final concentration of 2.5M guanidinium chloride and 250 mM HEPES and incubated at 65° C. for 15 min. Reduction was achieved through addition of tris(2-carboxylethyl) phosphine (TCEP) at a final concentration of […] and incubated at 65° C. for 45 min. Alkylation reaction was performed with addition of iodoacetamide (IAA, Sigma, A3221) to a final concentration of 10 mM IAA for 15 min at room temperature in the dark. Following denaturation, reduction and alkylation steps, ten percent of each of the nine parallel protein samples was removed and combined to serve as a pooled reference. Isobaric tags were added to free amine groups using the TMT10plex Isobaric Mass Tagging Kit (ThermoFisher, 90113) with TMT channels randomly assigned to the nine samples and TMT 131 assigned to the pooled reference. […]

Substance	logFC.mEQ.over.Luc
FBN1_29 (LEAGNVKETR; listed as Homo sapiens)	−0.34
FN1_40 (QSPVAVSQSKPGCYDNGKHYQINQQWER; listed as Homo sapiens)	−0.50
FN1_1143 (LTPGVEYVYTIQVLR; listed as Homo sapiens)	−0.24
FN1_1656 (SSSPVTGYR; listed as Homo sapiens)	−0.08
HSPG2_2331 (ANLAYPAGSTQPIR; listed as Homo sapiens)	−0.01
LOX_124 (WFQAGYSTSR; listed as Homo sapiens)	0.03
LTBP1_393 (LTATNFR; listed as Homo sapiens)	−0.18

The next lines start with the values.

logFC.mEQ.over.Luc	Substance
−0.58	AEBP1_37 (FLEGFLSELEPEPR; listed as Homo sapiens)
−0.38	EFEMP1_124 (AVAGPEMQTGR; listed as Homo sapiens)
−0.52	FLNA_1285 (LTQTGGPHVKAR; listed as Homo sapiens)
−0.47	FN1_36 (MVQPQSPVAVSQSKPGCYDNGKHYQINQQWER; listed as Homo sapiens)
−0.43	FN1_886 (NQESTPVVIQQETTGTPR; listed as Homo sapiens)
−0.04	IGFBP7_101 (AAGGPGVSGVCVCKSR; listed as Homo sapiens)
−0.65	LOXL2_37 (FQQPAPEYHQPQAPANVAKIQLR; listed as Homo sapiens)

— patent publication US20240368668A1, “SUBSTRATES AND BIOMARKERS OF ADAMTS7” (The Broad Institute, Inc., priority 2021, published 2024)
